From article PMC4484809 come the findings set out here.

Experiment [1] has as its target Xpo1 (full-length, 1–1071) (S. cerevisiae) (UniProt P30822).
Experiment [2] shares this target. The source holds these as a separate data set.
The target is the same in experiment [3]. The source holds these as a separate data set.

Consider “Ded1 (full-length, 1–604) (from UniProt P06634 1-604) (natural protein)”, for which the Michaelis-Menten analysis of Ded1 ATPase (500 nM) against whole cell yeast RNA, with ~10 fold molar excess of Xpo1 and Ran[GTP]Q71L; fold change of the apparent KM for RNA in experiment [1] is 50 fold. The substance also returned an RNA-stimulated ATPase activity of Ded1 (500 nM, 320 μg/mL whole-cell yeast RNA) with Xpo1 0.55–11 μM and Ran[GTP]Q71L 0.65–13 μM added together; fold reduction in experiment [2] of 2 fold. In experiment [3], this substance returned an RNA duplex unwinding (helicase) by Ded1 (50 nM) with Xpo1 (550 nM) and Ran[GTP]Q71L (650 nM); fold inhibition of k unwind of 5 fold.

In turn, “Ded1_(I13A) (full-length Ded1, I13A) (from UniProt P06634 1-604) (natural protein)” had an RNA duplex unwinding (helicase) by Ded1 I13A (50 nM) with Xpo1 (550 nM) and Ran[GTP]Q71L (650 nM); fold inhibition of k unwind in experiment [3] of under 2 fold.
